From the DeepSol protein solubility set come the findings set out here.

A short description of the data set: soluble on expression in E. coli; label from the status in PepcDB or PDB records.
Take “MKVRILGSGTSTGVPQIGCTCPVCTSADPKDNRLRASAIVETEDARILIDCGPDFRAQVLHLPFEKIDGVLITHEHYDHVGGLDDLRPFCRFGAVPIYAEEYVARALRLRMPYCFVDHRYPGVPDIPLQEIEVGHAFSIHHTEVVPLRVMHGRLPILGYRIGRLGYITDMLTMPEESYEQLEGIDVLIMNALRIAPHPTHQNLEEALKVAERIRAKETYFIHMSHDMGLHKKVEKELPENIHLTYDGMEIIF”: the “soluble on expression in E. coli” value was “not soluble”.

Consider “MQFGIFTIGDVTVDPTTGKAPTEGERIHAMTQIALKAEEVGLDVFATGEHHNPPFVPSSPTTHLAYIAAKTEKLLLSTSTTLITTNDPVKIAEDYTFLQHLSGGRVDLMMGRGNTGPVYPWFGKDIHQGIPLAIENYHLLRRLWREDVVNWQGKFRTPLQGYTSTPAPLDGVAPFVWHGSIRSTEIAEQAAFYGDGFFHNNIFWNKEHTAQMVNLYRQRFEHYGHGQADQAIVGLGGQVFIGDSEEEAKKTFRPYFDNAPVYGHGPSLEDFSRLTPLTVGTAEQVIERTMEFADWVGDYQRQLFLIDHAGLPLEMVLDQIERLGHDVVPEVRRRMEERRPDHVPSNPPTHQSLKANRNSPHFQINPGQPTE”, for which the “soluble on expression in E. coli” value is listed as “not soluble”.

Turning to “MRGSAFNGKWETESQEGYEPFCKLIGIPDDVIAKGRDFKLVTEIVQNGDDFTWTQYYPNNHVVTNKFIVGKESDMETVGGKKFKGIVSMEGGKLTISFPKYQQTTEISGGKLVETSTASGAQGTAVLVRTSKKVLVPR”, the “soluble on expression in E. coli” value was “soluble”.

In the case of “MGSDKIHHHHHHMQLHLTDDRFNTDPYWTERIKSTFACPPKEVVSMFDQNGYDLTKLEQLYAVANGAETTKHRNSSHITLRQDWFTADDTEYGPHINHAYMFERKGYSGDALAQLEAWSYYRPHFHKLIAMRPKWGLDFSIDYCDREGNVFELLHWEYDGFDHNEVADKKEKMDEFLVNQDWDERARTMLERKNEWHKLGFFEQSEWKTEFFGIEKERFKMVLWK”, the “soluble on expression in E. coli” value was “not soluble”.

On to “MGSDKIHHHHHHMASPINESRIGYLYEAVRSGTVRAAADYLDVAPSAVSRQIALLEEELAIALVERNKRGVRPTEAGALLIEYFRQQRSHQGDLVAKLQEIRGLRRGTIVVVMGEGFASTMVGGPIKQFCEAYPEISITMDLCSTNEVMRRVSEDEADIGLVFNPSSDSKIVSRAGSRQPMHAIVSPAFPLVGKVKSVTLQDLMPYPMALTHPEHGTRRLVDAAMLLDKVRLTPAITTNSVNVLKLFAKSNLGFTLLAPIAIAPELAAGELVALPVDNRLLESSEAHLVTRAGRQLSPAANRLLNRLKAQIHKYDEYGAESGGQASLATQ”, for which the “soluble on expression in E. coli” value is “not soluble”.

Regarding “MGSDKIHHHHHHMEFSAKQIAAFIQGEIIGDENATVHTFAKIEEGMPGAISFLSNPKYTPYIYETQSSIVLVNKDFVPEHEIRATLIKVDNAYESLAKLLNLYEMSKPKKQGIDSLAYIAPSAKIGENVYIGAFAYIGENAVIGDNTQIYPHTFVGDGVKIGNGCLLYSNVNVYHDCRIGNECILHSGAVIGADGFGFAPTPNGYDKIPQIGIVILEDKVDIGANTCVDRATMGATIIHSGAKIDNLVQIAHNDEIGSHTVMAAQVGIAGSAKIGEWCMFGGQVGIAGHITIGDRVNLGAQSGIPSSIKADSVLIGTPPMEPKAYFKAAVVTKNLPDMQKEIRNLRKEVEELKQLLNK”, the “soluble on expression in E. coli” value is “not soluble”.

On to “SAANVAHGLQQNVLYVDSNGGLTASRLLQLLQAKTQDEEEQAEALRRIQVVHAFDIFQMLDVLQELRGTVAQQVTGSSGTVKVVVVDSVTAVVSPLLGGQQREGLALMMQLARELKTLARDLGMAVVVTNHITRDRDSGRLKPALGRSWSFVPSTRILLDTIEGAGASGGRRMACLAKSSRQPTGFQEMVDIGTWGTSEQSATLQGDQT”, for which the “soluble on expression in E. coli” value was “soluble”.

In the case of “MGSDKIHHHHHHMKVNTALGILAGKSSQFILKKLGRGTTLPGKIALKFDKHILDSLAKDYEVVVITGTNGKTLTTALTVGILQEAFGEITTNTSGANMITGITATFLSAKKNKKGKKIAVLEIDEASLARVTDFIKPSLIVFTNIFRDQMDRYGEIYTTYQMILDGAAKAPQATILANGDSPLFNSTNVINPVKYYGFATEEHEPRLAHYNTEGVLCPHCHQIIQYKLNTYANLGSYICNNCGFCRPELDYKLTDLKEITNTSSTFAIDGQDYKINIGGLYNIYNALAAVSVAAFFGVTPEKIKAGFDKSKAVFGRQETFKLGDKDCTLVLIKNPVGATQAIEMMKLAPYDFSLSVLLNANYADGIDTSWIWDADFEQITQMDIPQVFAGGVRSSEIARRLRVTGYPENQITETPKLEDIMALIEQSSSQHAYILATYTAMLEFRDLLAQRQAVGKEMK”, the “soluble on expression in E. coli” value is “not soluble”.

For “MSQAELPVLRVAYMPLIDCAPLVAASRLGLDHAYGLQLQLHRQASWAGVRDRLLAGEVDAAHTLASLVYAIDLGVGGPQCPMALLMTLNHNGQAITLAPALAQGVAAGQPLPQVLAEAGRRVVFAQTFPTGTHALWLYYWLAACGVDPMRDVDVVSIPPPQMPEALASGLVDGYCSGEPWAAVAEAQGSGQRVIRSGELWPEHPEKVLACRREFAALQPELSERLTACVLEACRWLDAAPANRAQCAQWLADPDYIGVPAAHLAACLDADAATVSVDPSALAFHRGGAVNMPWLSDGEWFLEQFQRWGWHTLQAADLARLHDIHRLDNYRRAAQRAGVTAPDADRRINRLFDTPAALEHHHHHH”, the “soluble on expression in E. coli” value was “not soluble”.

With “KSIYLQSPYFIPDQSYINALKMAANSGVEVNLMIPCKPDHPFVYWATFSNAADLLDSGVNIYTYQNGFIHSKILMIDDEISSIGSANMDFRSFELNFEVNAFIYDEDIAKQLRQAFEKDIEQSKLLTKEVYDKR”, the “soluble on expression in E. coli” value was “not soluble”.

For “MDSDEEILSSYSSLTVTSRNETTISTRDSASNAMPVVVVDDEIFEDASSDISILTKRQESSSIHLDRSKMRKAVHQDLCTHDQKILEPLFLRKCEPHRVRQGTAPPNVIPIQKVENVEANKKFTGHSALLVSLNTPTYCVRYLAANAVHTPKNVLIFASPLSYVRFVARPDPQRTNQSVFEDPSETVRLMMAPDVAKVAQKMLPKWQTVTFTLAFGKHVAVKYRIIEVRKQPVTYVKAKADRVKRVSTSTLYRTEPVQRVDYWRSFKSNELKLSTVEKNDPQIVKRVFLEQQSLNWDPSGVIGTEKEHHHKTIVKSKKIKTGEELNLMWQRTDFH”, the “soluble on expression in E. coli” value is on record as “not soluble”.

On to “MLNIIRAGIYTSVQDSGRHGFRQSGLSHCGALDKPAFQTANLLVGNDANAPALEITLGQLVVEFENETWFALTGAGCEAQLDDQPVWTGWRLPVKAGQRLTLHRPLHGMRSYLAVAGGIAVPEVMGSYSTDLKSGIGGLEGRLLKDGDRLATGKPSRQFSGPQGVKQLLWGNRIRALPGPEYREFDRASQEAFWRSPWQLSPQSNRMGYRLQGQSLTRTTDRELLSHGLLPGVVQVPYNGQPIVLMNDAQTTGGYPRIACIIEADMYHLAQIPLGQPIHFVQCSLEEALNARRERQRYLEQLTWRLQHEHLEHHHHHH”, for which the “soluble on expression in E. coli” value is “not soluble”.

Regarding “IREAIARNPQEIFQYVRLSQVKRDDKVLGYRVSPGKDPVLFESIGLQDGDMAVALNGLDLTDPNVMNTLFQSMNEMTEMSLTVERDGQQHDVYIQF”, the “soluble on expression in E. coli” value is “not soluble”.

Take “GPGSMYNSGGEVRSYAQRVFALYSRENVLSVSRFCLAWYVLWGKQPNPTVTELLFGRCDASGDGNVTKYPKEICEEGYAAPLRGSSSDYCKRPSGVNTVAVGASVPPNATLQRRISEEEFVRFAVAYYDSMGNDASDLSDVPGAANPFHAVPRVAHWAHFIALAGDKGYVTLQDILETENVAWLRPPEYEDGDVNPKGVRGGGRAALLSHAFAIADSNKDGKVVFGDVENYMRPLSS”: the “soluble on expression in E. coli” value is listed as “not soluble”.

Regarding “MGSDKIHHHHHHMIPFHDRPFAEYLVEMLRGQGFRRILFLLGYLPDKVTEHFGDGSRFGVEIEYAVSPVEDETGTRLRRVKDRLDDIFVLLYCDNYWPMPFAAMWERYCRLGVEAMVTVYRNRDGYTRDNLRVDDDGLLALYDKSRTAPGLAGVDIGFFILTRAVIDLIPEGGNPSFEKSVYPVLVERRQLAAFETDHRYYSVGSHERLPLTEAFLARNKTVLLDRDGTLNLRMPRAEYVRSWADWQWLPGAREALAELARADYRIILITNQPGLARGALDQAALDAIHGRMIEETQAAGGRIDHIYYCPHNWDEGCDCRKPRPGMLFQAQRDFHLDLSRVTFIGDDDRDGEAAQAAGAPFLQVTESYSLLDAVHDLLAADHSNPVTGKCPD”, the “soluble on expression in E. coli” value was “not soluble”.

With “MSDFLKDCFQKIGWEKDHVSFGDLPLFLKAMAYRFPFENRAVLAKENYKITKEELWRRLLKDQHGGLCYDLNGFLYFVLREAGFHVKLIRGTVYAGDQEGWALEGTHAAVWLSAENGDYLVDIGFGINLALQPIPLSGETVQSPVGSFRIKKEETEKGSYVLLMDKGEGWQIGYAFTLEESDLGDLDNMKDIIHSHEKSPFNKSLLASKLTPSGRMVMSERHFTIYENGGNIQKSDIGPSGFEEKLNTH”, the “soluble on expression in E. coli” value is “not soluble”.

“MEYFNVGKIVNTQGLQGEMRVLSVSDFAEERFKKGSQLALFDDKDRFVQEVTIVSHRKQKHFDIIKFKDMYHINAIEKYKGYTLKVSKDNQGDLQEGEFYYHQIIGMAVYEKDVLIGHVKEILQPGANDVWIVKRQGKRDLLLPYIPPVVLNVDVPNKRVDVELMEGLDDEDLEHHHHHH”: the “soluble on expression in E. coli” value was “soluble”.

Consider “ASMTGGQQMGRGSGPMLIEFNIPVDLKLVEQQNPKVKLGGRYTPMDGASVHKMALLVPFRDRFEELLQFVPHMTAFLKRQGVAHHIFVLNQVDRFRFNRASLINVGFQFASDVYDYIAMHDVDLLPLNDNLLYEYPSSLGPLHIAGPKLHPKYHYDNFVGGILLVRREHFKQMNGMSNQYWGWGLEDDEFFVRIRDAGLQVTRPQNIKTGTNDTFSHIHNRYHRKRDTQKCFNQKEMTRKRDHKTGLDNVKYKILKVHEMLIDQVPVTILNILLDCDVNKTPWCDCS”, for which the “soluble on expression in E. coli” value is “soluble”.

“MQDLSGFTVPKGFRGANALKVQLWWAVQATLFAGSPQILYRWRAFLLRLFGAKIGKNVVIRPSVKITYPWKLTVGDYAWVGDDAVLYTLGEINIGAHAVISQKGYLCTGSHDYTSAHFDINAAPIVIGEKCWLATDVFVAPGVTIGHGTVVGARSSVFKSLPANAICRGNPAVVTRQRVQKVTP”: the “soluble on expression in E. coli” value is given as “not soluble”.

With “MTIPLPGLEVRGSKTGKPIMALLDLLGRTWSLGIIWNLHSGPATFRELQQRCEKISPTLLNTRLKELKTLQLVECQEAGYQLTHQGLDLFDIISPLGSWSSQWAQGLKEDSK”, the “soluble on expression in E. coli” value was “not soluble”.

With “MAIEIKVPDIGADEVEITEILVKVGDKVEAEQSLITVEGDKASMEVPSPQAGIVKEIKVSVGDKTQTGALIMIFDSADGAADAAPAQAEEKKEAAPAAAPAAAAAKDVNVPDIGSDEVEVTEILVKVGDKVEAEQSLITVEGDKASMEVPAPFAGTVKEIKVNVGDKVSTGSLIMVFEVAGEAGAAAPAAKQEAAPAAAPAPAAGVKEVNVPDIGGDEVEVTEVMVKVGDKVAAEQSLITVEGDKASMEVPAPFAGVVKELKVNVGDKVKTGSLIMIFEVEGAAPAAAPAKQEAAAPAPAAKAEAPAAAPAAKAEGKSEFAENDAYVHATPLIRRLAREFGVNLAKVKGTGRKGRILREDVQAYVKEAIKRAEAAPAATGGGIPGMLPWPKVDFSKFGEIEEVELGRIQKISGANLSRNWVMIPHVTHFDKTDITELEAFRKQQNEEAAKRKLDVKITPVVFIMKAVAAALEQMPRFNSSLSEDGQRLTLKKYINIGVAVDTPNGLVVPVFKDVNKKGIIELSRELMTISKKARDGKLTAGEMQGGCFTISSIGGLGTTHFAPIVNAPEVAILGVSKSAMEPVWNGKEFVPRLMLPISLSFDHRVIDGADGARFITIINNTLSDIRRLVM”, the “soluble on expression in E. coli” value was “soluble”.
